Assay results reported in the supplement of paper PMC10567573.

B1: ZNF649 (parent)
chain: EHERAHRGEKPHGCSLCGKAFYKR
B2: KCNA3 (parent)
chain: GERVVINISGLRFETQLKTLCQFP

Variants of: B1
Test: protein stability index of a GFP-peptide fusion (GPS, HEK-293T) (PSI 1-6); higher = more stable
Details: c terminus: a fixed tail appended
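Further: lentivirally expressed fusions sorted by FACS into six bins by GFP to DsRed ratio, PSI derived from sequencing read proportions per bin multiplied by bin number.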

Protein stability index of substitutions, site by site:
K23: M 3 | Q 2.24 | R 3.06 | S 2.03 | T 2.8 | V 1.95
R24: A 3.46 | C 4.03 | D 3.35 | F 2.65 | G 3.11 | I 2.81 | P 3 | Q 4.13 | S 4.19 | T 4.1 | V 2.05 | W 3.25 | Y 3.5

Variants of: B2
Test: as above
Details: c terminus: a fixed tail appended

Protein stability index of substitutions, site by site:
G1: C 2.8 | D 1.82 | H 2.1 | I 3.44 | K 2.52 | L 2.66 | M 3.17 | N 2.16 | Q 1.95 | R 3.52 | S 3 | T 2.96 | W 4.64 | Y 4.07
E2: F 1.98 | G 2.35 | H 1.45 | K 2.2 | L 3.35 | M 2.93 | N 2.26 | P 4.1 | Q 3.74 | T 2.21
R3: A 3.5 | C 2.36 | D 2.44 | G 1.85 | H 1.04 | K 2.73 | L 2.75 | M 4.26 | N 1.09 | P 2.26 | Q 3.4 | S 2.16 | T 3.87 | Y 3.34
V4: A 1.75 | C 3.21 | D 1.88 | E 1.92 | F 3.43 | G 1.66 | H 2.16 | K 2.23 | M 2.79 | N 1.64 | P 2.13 | Q 2.34 | R 2.28 | S 2.59 | T 2.27 | W 2.82 | Y 2.16
V5: A 1.53 | C 2.49 | D 1.55 | E 1.47 | F 2.05 | G 2.04 | H 1.93 | I 2.99 | K 2.49 | L 2.29 | N 1.76 | P 2.17 | Q 1.94 | R 2.18 | S 1.67 | T 2.42 | Y 2.39
I6: A 2.21 | C 1.38 | D 2.46 | E 2.52 | G 1.74 | H 1.78 | K 2.68 | M 1.32 | N 3.47 | P 3.15 | Q 3.56 | R 2.21 | S 2.86 | T 2.75 | Y 1.33
N7: C 2.1 | D 1.83 | E 2.1 | G 2.14 | H 4.19 | P 1.53 | Q 2.66 | S 4.73 | Y 1.8
I8: A 1.67 | C 2.62 | D 2.82 | E 3.02 | F 2.85 | G 2.23 | H 2.55 | K 1.97 | M 1.65 | N 2.53 | P 3.11 | Q 2.12 | R 1.83 | S 1.86 | T 2.17 | V 1.28 | W 1.76 | Y 2
S9: A 1.29 | D 1.51 | E 3.59 | F 2.47 | G 1.04 | K 2.4 | L 2.27 | P 1 | Q 3.24 | V 1.83
G10: D 1.47 | E 2.8 | F 2.81 | I 1.81 | L 3.08 | N 2.35 | P 4.02 | R 1.26 | T 2.62 | V 1
L11: A 1.34 | D 1.81 | E 2.01 | F 1.61 | G 2.45 | H 1.38 | I 2.68 | N 2.94 | P 1.54 | Q 1.45 | S 1.75 | T 1.58 | V 3.59 | W 2.49
